Test results taken from patent US20020142982.

Tests used:
[1] = molecular target: R231K EDG-1 mutant receptor (UniProt P21453)
[2] = molecular target: GST-i3 polypeptide from EDG-3 (UniProt Q99500)
[3] = molecular target: T236A EDG-1 mutant receptor (UniProt P21453)
GST-i3T236V polypeptide = GST-i3T236V polypeptide (UniProt P21453)
[4] = molecular target: R233K EDG-1 mutant receptor (UniProt P21453)
[5] = molecular target: glutathione S-transferase (GST)-EDG-1-i3 (UniProt P21453)
[6] = test system: GST-i3 polypeptide from EDG-5 [GST: P08515]
Sequence of GST-i3 polypeptide from EDG-5 [GST: P08515] (P08515 whole entry, looked up): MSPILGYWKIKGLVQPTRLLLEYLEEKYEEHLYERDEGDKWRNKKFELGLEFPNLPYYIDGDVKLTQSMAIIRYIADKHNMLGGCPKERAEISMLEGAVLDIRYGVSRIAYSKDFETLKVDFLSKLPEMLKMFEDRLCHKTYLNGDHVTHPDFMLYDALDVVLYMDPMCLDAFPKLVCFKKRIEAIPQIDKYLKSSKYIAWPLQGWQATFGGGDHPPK

[7] = molecular target: Flag-tagged wild-type EDG-1 receptor (UniProt P21453)
Sequence of Flag-tagged wild-type EDG-1 receptor (P21453 whole entry): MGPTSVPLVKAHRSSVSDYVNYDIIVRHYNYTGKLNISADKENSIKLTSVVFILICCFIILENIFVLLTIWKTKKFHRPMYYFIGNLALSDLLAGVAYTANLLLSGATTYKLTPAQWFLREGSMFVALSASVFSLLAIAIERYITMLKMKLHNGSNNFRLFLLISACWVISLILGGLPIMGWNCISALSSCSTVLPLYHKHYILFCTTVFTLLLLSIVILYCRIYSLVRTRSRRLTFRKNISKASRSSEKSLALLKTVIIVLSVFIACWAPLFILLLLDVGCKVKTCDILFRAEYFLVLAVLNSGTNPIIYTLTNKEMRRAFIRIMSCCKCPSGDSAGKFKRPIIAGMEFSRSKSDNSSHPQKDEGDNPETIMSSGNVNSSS

Sequence of R231K EDG-1 mutant receptor (P21453 whole entry R231K): as the sequence (P21453 whole entry) above, with R231K counted along it
Sequence of T236A EDG-1 mutant receptor (P21453 whole entry T236A): as the sequence (P21453 whole entry) above, with T236A counted along it
Sequence of R233K EDG-1 mutant receptor (P21453 whole entry R233K): as the sequence (P21453 whole entry) above, with R233K counted along it
Sequence of GST-i3T236V polypeptide (P21453 whole entry T236V, looked up, tested part not stated): as the sequence (P21453 whole entry) above, with T236V counted along it
Sequence of glutathione S-transferase (GST)-EDG-1-i3 (P21453 other isoform, or with tags, fused parts or gaps): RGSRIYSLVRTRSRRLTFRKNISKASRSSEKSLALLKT
Sequence of GST-i3 polypeptide from EDG-3 (Q99500 217-243): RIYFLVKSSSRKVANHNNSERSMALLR

## recombinant, active Akt
[1]
  in vitro phosphorylation of immunoprecipitated receptor: All three mutants were phosphorylated very poorly by the active Akt kinase in an in vitro phosphorylation reaction when compared to the wild-type EDG-1
[2]
  in vitro phosphorylation (32P incorporation, SDS-PAGE): only the GST-EDG-1-i3 was phosphorylated by Akt
[3]
  in vitro phosphorylation of immunoprecipitated receptor: All three mutants were phosphorylated very poorly by the active Akt kinase in an in vitro phosphorylation reaction when compared to the wild-type EDG-1
GST-i3T236V polypeptide
  in vitro phosphorylation (32P-phosphate incorporation): ^32P-phosphate incorporation into the GST-i3T236V polypeptide was significantly reduced upon incubation with Akt
[4]
  in vitro phosphorylation of immunoprecipitated receptor: All three mutants were phosphorylated very poorly by the active Akt kinase in an in vitro phosphorylation reaction when compared to the wild-type EDG-1
[5]
  in vitro phosphorylation (32P incorporation, SDS-PAGE): only the GST-EDG-1-i3 was phosphorylated by Akt
[6]
  in vitro phosphorylation (32P incorporation, SDS-PAGE): only the GST-EDG-1-i3 was phosphorylated by Akt
[7]
  in vitro phosphorylation of immunoprecipitated receptor: All three mutants were phosphorylated very poorly by the active Akt kinase in an in vitro phosphorylation reaction when compared to the wild-type EDG-1

## p90^RSK (active kinase)
[1]
  in vitro phosphorylation of immunoprecipitated receptor: in vitro phosphorylation with p90^RSK was similar in wild-type as well as in the three mutants
[3]
  in vitro phosphorylation of immunoprecipitated receptor: in vitro phosphorylation with p90^RSK was similar in wild-type as well as in the three mutants
[4]
  in vitro phosphorylation of immunoprecipitated receptor: in vitro phosphorylation with p90^RSK was similar in wild-type as well as in the three mutants
[7]
  in vitro phosphorylation of immunoprecipitated receptor: in vitro phosphorylation with p90^RSK was similar in wild-type as well as in the three mutants
